Assay results published in patent US20260207704A1, “STAPLED PEPTIDES AND METHODS THEREOF” (priority 2022, published 2026).
*1 amine or outer side, *2 acyl side, *3 side chain or, on linkers, in order; H or OH if unused. Bridges are numbered along the chain shown (N, C = ends). Primed or numbered codes have the meaning given here. [ ]: non-standard residue; d: D form. B5(4) = 2-amino-2-(pent-4-en-1-yl)hept-6-enoic acid, stapled through each of its two olefin groups with other olefin-containing amino acid residues, O=C(C(CCCC=[*:3])(CCCC=[*:4])N[*:1])[*:2]; PyrS2″ = (S)-3-amino-1-((pent-4-en-1-yloxy)carbonyl)pyrrolidine-3-carboxylic acid (olefin stapling residue), C=CCCCOC(=O)N1CC[C@@](N[*:1])(C(=O)[*:2])C1; PyrS2 = (S)-3-amino-1-((pent-4-en-1-yloxy)carbonyl)pyrrolidine-3-carboxylic acid, olefin staple residue, C=CCCCOC(=O)N1CC[C@@](N[*:1])(C(=O)[*:2])C1; TriAzLys(4) = (S)-2-amino-5-(1H-1,2,3-triazol-1-yl)pentanoic acid, staple through triazole 4-position, O=C([C@H](CCCn1cc([*:3])nn1)N[*:1])[*:2]; TriAzLys = (S)-2-amino-5-(1H-1,2,3-triazol-1-yl)pentanoic acid, stapled through triazole 4-position, O=C([C@H](CCCn1cc([*:3])nn1)N[*:1])[*:2]; PyrS2(5) = (S)-3-amino-1-((pent-4-en-1-yloxy)carbonyl)pyrrolidine-3-carboxylic acid, C=CCCCOC(=O)N1CC[C@@](N[*:1])(C(=O)[*:2])C1; B5″ = 2-amino-2-(pent-4-en-1-yl)hept-6-enoic acid (bis-olefin stapling residue), C=CCCCC(CCCC=C)(N[*:1])C(=O)[*:2]; 2F3MeF(3) = aromatic amino acid residue, Cc1cccc(C[C@H](N[*:1])C(=O)[*:2])c1F; 2F3MeF″ = aromatic residue, Cc1cccc(C[C@H](N[*:1])C(=O)[*:2])c1F; Phe(3-COOH) = N[C@@H](Cc1cccc(C(=O)O)c1)C(=O)O; 2F3MeF = Cc1cccc(C[C@H](N[*:1])C(=O)[*:2])c1F; Abu(4-yl) = O=C([C@H](CC[*:3])N[*:1])[*:2]; Bta = N[C@@H](Cc1csc2ccccc12)C(=O)O; Lys(iPr) = CC(C)NCCCC[C@H](N)C(=O)O; αAllylPro = C=CC[C@@]1(C(=O)O)CCCN1; BztA = aromatic amino acid residue; tBuAla = CC(C)(C)C[C@H](N)C(=O)O; 3Thi = N[C@@H](Cc1ccsc1)C(=O)O; Cha = N[C@@H](CC1CCCCC1)C(=O)O; PyrS2(4) = not defined here; hSer = N[C@@H](CCO)C(=O)O; BztA″ = aromatic residue; Nle = CCCC[C@H](N)C(=O)O; TfeGA = not defined here; GlnR = not defined here; PL3 = not defined here; B5 = not defined here; Aib = CC(C)(N)C(=O)O

biological target: beta-catenin (human); assay: fluorescence polarization
Sequence (B6V8E6 146-665 limits assumed): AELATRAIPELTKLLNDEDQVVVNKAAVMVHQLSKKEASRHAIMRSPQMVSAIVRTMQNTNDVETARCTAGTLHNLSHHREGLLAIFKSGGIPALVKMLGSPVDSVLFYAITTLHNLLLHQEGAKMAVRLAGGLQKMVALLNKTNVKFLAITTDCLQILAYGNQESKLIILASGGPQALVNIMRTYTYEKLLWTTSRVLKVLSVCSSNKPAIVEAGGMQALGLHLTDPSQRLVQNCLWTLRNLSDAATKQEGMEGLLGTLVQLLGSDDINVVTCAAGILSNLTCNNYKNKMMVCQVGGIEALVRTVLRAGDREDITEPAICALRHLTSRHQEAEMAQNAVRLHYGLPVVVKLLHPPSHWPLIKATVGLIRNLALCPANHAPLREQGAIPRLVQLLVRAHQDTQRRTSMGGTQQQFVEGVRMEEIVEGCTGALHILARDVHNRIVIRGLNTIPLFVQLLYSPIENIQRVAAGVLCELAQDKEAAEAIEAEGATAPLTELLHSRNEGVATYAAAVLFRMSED

Binder | IC50
Ac-[PL3]D[tBuAla][B5]D[Phe(3-COOH)][tBuAla]AFK[PyrS2(4)][2F3MeF][Bta][GlnR]L-NH2 (staple 1-4; bridge 10-14; not fully specified (residue 10); printed as Ac-PL3-Asp-Npg-B5-Asp-3COOHF-Npg-Ala-Phe-Lys*3-PyrS2-2F3MeF-BztA-GlnR*3-Leu-NH2; reading uncertain; also: PyrS2 tied into a staple, partner not placed) [I-108] | < 50 nM
Ac-[PL3]D[tBuAla][B5]D[Phe(3-COOH)][tBuAla]AFK[PyrS2(4)][2F3MeF][Bta][GlnR]A-NH2 (staple 1-4; bridge 10-14; not fully specified (residue 10); printed as Ac-PL3-Asp-Npg-B5-Asp-3COOHF-Npg-Ala-Phe-Lys*3-PyrS2-2F3MeF-BztA-GlnR*3-Ala-NH2; reading uncertain; also: PyrS2 tied into a staple, partner not placed) [I-100] | < 50 nM
Ac-[PL3]D[Cha][B5]D[Phe(3-COOH)]AAFK[PyrS2(4)][2F3MeF][Bta][GlnR]L-NH2 (staple 1-4; bridge 10-14; not fully specified (residue 10); printed as Ac-PL3-Asp-Cha-B5-Asp-3COOHF-Ala-Ala-Phe-Lys*3-PyrS2-2F3MeF-BztA-GlnR*3-Leu-NH2; reading uncertain; also: PyrS2 tied into a staple, partner not placed) [I-107] | < 50 nM
Ac-[αAllylPro][hSer][tBuAla][B5]D[Phe(3-COOH)][Nle]AFK[PyrS2″][2F3MeF″][BztA″][GlnR]LS-NH2 (bridge 10-14; not fully specified (bridges); printed as Ac-PL3-Hse-Npg-B5-Asp-3COOHF-nLeu-Ala-Phe-Lys*3-PyrS2-2F3MeF-BztA-GlnR*3-Leu-Ser-NH2; reading uncertain; also: Lys10 and GlnR14 marked *3) [I-146] | > 1000 nM
Ac-[αAllylPro]N[Cha][B5″]DT[Lys(iPr)]AF[GlnR][PyrS2″]F[Bta]K-NH2 (bridge 10-14; reading uncertain; also: PL3-B5 and PyrS2 links not placed, printed as Ac-PL3-Asn-Cha-B5-Asp-Thr-iPrLys-Ala-Phe-GlnR*3-PyrS2-Phe-BztA-Lys*3-NH2) [I-150] | > 1000 nM
Ac-[PL3]D[tBuAla][B5]D[Phe(3-COOH)]AAFK[PyrS2(4)][2F3MeF][Bta][GlnR]L-NH2 (staple 1-4; bridge 10-14; not fully specified (residue 10); printed as Ac-PL3-Asp-Npg-B5-Asp-3COOHF-Ala-Ala-Phe-Lys*3-PyrS2-2F3MeF-BztA-GlnR*3-Leu-NH2; reading uncertain; also: PyrS2 tied into a staple, partner not placed) [I-105] | < 50 nM
Ac-[αAllylPro]D[tBuAla][B5]D[Phe(3-COOH)][Aib]AF[TriAzLys(4)][PyrS2][3Thi][Bta][Abu(4-yl)]A-NH2 (triazole 10-14; not fully specified (bridges); printed as Ac-PL3-Asp-Npg-B5-Asp-3COOHF-Aib-Ala-Phe-TriAzLys*3-PyrS2-3Thi-BztA-sAla*3-Ala-NH2; reading uncertain) [I-335] | < 50 nM
Ac-[PL3]D[Cha][B5]D[Phe(3-COOH)][Cha]AFK[PyrS2(4)][2F3MeF][Bta][GlnR]A-NH2 (staple 1-4; bridge 10-14; not fully specified (residue 10); printed as Ac-PL3-Asp-Cha-B5-Asp-3COOHF-Cha-Ala-Phe-Lys*3-PyrS2-2F3MeF-BztA-GlnR*3-Ala-NH2; reading uncertain; also: PyrS2 tied into a staple, partner not placed) [I-103] | < 50 nM
Ac-[PL3]D[tBuAla][B5]D[Phe(3-COOH)][Cha]AFK[PyrS2(4)][2F3MeF][Bta][GlnR]A-NH2 (staple 1-4; bridge 10-14; not fully specified (residue 10); printed as Ac-PL3-Asp-Npg-B5-Asp-3COOHF-Cha-Ala-Phe-Lys*3-PyrS2-2F3MeF-BztA-GlnR*3-Ala-NH2; reading uncertain; also: PyrS2 tied into a staple, partner not placed) [I-102] | < 50 nM
Ac-[PL3]DL[B5(4)]DDAAF[dK][PyrS2″][3Thi][Bta][GlnR]-NH2 (bridge 10-14; not fully specified (bridges); printed as Ac-PL3-Asp-Leu-B5-Asp-Asp-Ala-Ala-Phe-dLys*3-PyrS2-3Thi-BztA-GlnR*3-NH2; reading uncertain) [I-2] | < 50 nM
Ac-[αAllylPro]D[tBuAla][B5″][hSer][TfeGA]AAFK[PyrS2″][2F3MeF][Bta][GlnR]A-NH2 (bridge 10-14; not fully specified (bridges); reading uncertain; also: Lys*3 and GlnR*3 marked *3) [I-119] | > 1000 nM
Ac-[αAllylPro][hSer][tBuAla][B5]D[Phe(3-COOH)]AAFK[PyrS2(5)][2F3MeF″][BztA″][GlnR]LS-NH2 (bridge 10-14; not fully specified (bridges); printed as Ac-PL3-Hse-Npg-B5-Asp-3COOHF-Ala-Ala-Phe-Lys*3-PyrS2-2F3MeF-BztA-GlnR*3-Leu-Ser-NH2; reading uncertain; also: Lys10 and GlnR14 marked *3) [I-145] | > 1000 nM

The remaining lines, values ahead:

IC50 | Binder
< 50 nM | Ac-[PL3]N[tBuAla][B5]D[TfeGA]AAFK[PyrS2(4)][2F3MeF][Bta][GlnR]A-NH2 (staple 1-4; bridge 10-14; reading uncertain; also: PyrS2 tied into a staple, partner not placed) [I-113]
< 50 nM | Ac-[PL3]D[tBuAla][B5]D[Phe(3-COOH)][tBuAla]AFK[PyrS2″][2F3MeF(3)][BztA][GlnR]A-NH2 (staple 1-4 (inferred); bridge 10-14; not fully specified (residue 10, bridges); printed as Ac-PL3-Asp-Npg-B5-Asp-3COOHF-Npg-Ala-Phe-Lys*3-PyrS2-2F3MeF-BztA-GlnR*3-Ala-NH2; reading uncertain; also: Lys10 and GlnR14 marked *3) [I-99]
> 1000 nM | Ac-[PL3][hSer][tBuAla][B5]D[TfeGA]AAFK[PyrS2(4)][2F3MeF][Bta][GlnR]A-NH2 (staple 1-4; bridge 10-14; reading uncertain; also: PyrS2 tied into a staple, partner not placed) [I-116]
> 1000 nM | Ac-[αAllylPro]D[tBuAla][B5″][hSer][TfeGA]AAFK[PyrS2″][2F3MeF][Bta][GlnR]A-NH2 (bridge 10-14; not fully specified (bridges); reading uncertain; also: Lys*3 and GlnR*3 marked *3) [I-118]
< 50 nM | Ac-[αAllylPro]D[tBuAla][B5″]DDAAF[TriAzLys][PyrS2″][3Thi][Bta][Abu(4-yl)]-NH2 (triazole 10-14; also: PL3-B5 and PyrS2 links not placed) [I-18]
> 1000 nM | Ac-[PL3][hSer][tBuAla][B5]D[TfeGA]AAFK[PyrS2(4)][2F3MeF][Bta][GlnR]A-NH2 (staple 1-4; bridge 10-14; reading uncertain; also: PyrS2 tied into a staple, partner not placed) [I-115]
< 50 nM | Ac-[αAllylPro]D[tBuAla][B5(4)]D[Phe(3-COOH)][GlnR]AFL[PyrS2(5)][2F3MeF(3)][BztA][GlnR](diaminobutane)A-NH2 (staple 1-4 (inferred); not fully specified (bridges); printed as Ac-PL3-Asp-Npg-B5-Asp-3COOHF-GlnR-Ala-Phe-Leu-PyrS2-2F3MeF-BztA-[diaminobutane]GlnR-Ala-NH2; reading uncertain) [I-92]
< 50 nM | Ac-[PL3]D[tBuAla][B5]D[TfeGA]AAFK[PyrS2(4)][2F3MeF][Bta][GlnR]A-NH2 (staple 1-4; bridge 10-14; reading uncertain; also: PyrS2 tied into a staple, partner not placed) [I-112]
< 50 nM | Ac-[PL3]D[Cha][B5]D[Phe(3-COOH)]AAFK[PyrS2″][2F3MeF(3)][BztA][GlnR]A-NH2 (staple 1-4 (inferred); bridge 10-14; not fully specified (residue 10, bridges); printed as Ac-PL3-Asp-Cha-B5-Asp-3COOHF-Ala-Ala-Phe-Lys*3-PyrS2-2F3MeF-BztA-GlnR*3-Ala-NH2; reading uncertain; also: Lys10 and GlnR14 marked *3) [I-98]
